We go through 18 molecules from patent US20260139049A1 (PEDIATRIC IMMUNITY AND HEALTHCARE GUANGZHOU BIOTECHNOLOGY, published 2026).

Substitutions are numbered along the chain they refer to.

To fix the notation:
T1: human CLDN6 (human, UniProt P56747 1-220)
T1 construct: whole, on cells; four-transmembrane protein; also called claudin-6; HEK293T-CLDN6
T1 sequence (looked up): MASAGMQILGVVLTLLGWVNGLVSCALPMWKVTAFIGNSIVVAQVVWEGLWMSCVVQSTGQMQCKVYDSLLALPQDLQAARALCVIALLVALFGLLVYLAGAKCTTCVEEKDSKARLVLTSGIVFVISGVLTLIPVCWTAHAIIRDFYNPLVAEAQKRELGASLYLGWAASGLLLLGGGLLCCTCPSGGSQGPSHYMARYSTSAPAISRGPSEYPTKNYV

B1: PiH1001 (antibody, human IgG1, kappa, V domains shown)
VH: QVQLVQSGAEVKKPGASVKVSCKASGYTFTDYNMHWVRQAPGQGLEWIGYVNPNNGATSYNQKFKGRATMTRDTSTSTVYMELSSLRSEDTAVYYCARWDGYVYYYGLDYWGQGTLVTVSS
VL: DIQMTQSPSSLSASVGDRVTITCKASDHINNWLAWYQQKPGKVPKLLISGATSLETGVPSRFSGSGSGTDYTLTISSLQPEDVATYYCQQYWSTPYTFGGGTKLEIKR
notes: humanized from 51C10H4; IgG1; also called 51-VH1 + VL3
B2: PiH1007 (antibody, human IgG1, kappa, V domains shown)
VH: B1 VH with R72V, Y95N
VL: B1 VL with D17G, K45R
notes: humanized from 51C10H4; IgG1; also called 51-VH3 + VL4
B3: PiH1008 (antibody, human IgG1, kappa, V domains shown)
VH: B1 VH with G44S, R72V, T74K, Y95N
VL: B1 VL with D17G, K45R
notes: humanized from 51C10H4; IgG1; also called 51-VH4 + VL4
B4: PiH1005 (antibody, human IgG1, kappa, V domains shown)
VH: B1 VH
VL: B1 VL with D17G, K45R
notes: humanized from 51C10H4; IgG1; also called 51-VH1 + VL4
B5: PiH1006 (antibody, human IgG1, kappa, V domains shown)
VH: B1 VH with A68V, R72V, Y95N
VL: B1 VL with D17G, K45R
notes: humanized from 51C10H4; IgG1; also called 51-VH2 + VL4
B6: PiH1003 (antibody, human IgG1, kappa, V domains shown)
VH: B1 VH with R72V, Y95N
VL: B1 VL
notes: humanized from 51C10H4; IgG1; also called 51-VH3 + VL3
B7: PiH1002 (antibody, human IgG1, kappa, V domains shown)
VH: B1 VH with A68V, R72V, Y95N
VL: B1 VL
notes: humanized from 51C10H4; IgG1; also called 51-VH2 + VL3
B8: PiH1004-VH-Mutation8-VL (antibody, human IgG1, kappa, V domains shown)
VH: B1 VH with G44S, V51L, R72V, T74K, Y95N
VL: B1 VL
notes: improved antibody from PiH1004
B9: PiH1004-VH-VL-Mutation4 (antibody, human IgG1, kappa, V domains shown)
VH: B1 VH with G44S, R72V, T74K, Y95N
VL: B1 VL with A51G
notes: as for B8
B10: PiH1004-VH-VL-Mutation2 (antibody, human IgG1, kappa, V domains shown)
VH: B1 VH with G44S, R72V, T74K, Y95N
VL: B1 VL with I29V
notes: as for B8
B11: PiH1004-VH-VL-Mutation6 (antibody, human IgG1, kappa, V domains shown)
VH: B1 VH with G44S, R72V, T74K, Y95N
VL: B1 VL with W92G
notes: as for B8
B12: PiH1004-VH-Mutation11-VL (antibody, human IgG1, kappa, V domains shown)
VH: B1 VH with G44S, R72V, T74K, Y95N, Y110F
VL: B1 VL
notes: as for B8
B13: PiH1004-VH-VL-Mutation7 (antibody, human IgG1, kappa, V domains shown)
VH: B1 VH with G44S, R72V, T74K, Y95N
VL: B1 VL with S93H
notes: as for B8
B14: PiH1004-VH-VL-Mutation3 (antibody, human IgG1, kappa, V domains shown)
VH: B1 VH with G44S, R72V, T74K, Y95N
VL: B1 VL with N31Q
notes: as for B8
B15: PiH2012 (antibody, human IgG1, kappa, V domains shown)
VH: QVQLVQSGAEVKKPGASVKVSCKASGYTFTDYNMHWVRKATGQSLEWIGYINPNNGATNYNQKFKGRATMTRNKSISTAYMELRSLRSEDTAVYNCARWDGYVYYYGMDYWGQGTLVTVSS
VL: B1 VL with K45R, T69K, S93N
notes: humanized from 54B5A7; IgG1; also called 54-VH8 + VL5
B16: PiH2011 (antibody, human IgG1, kappa, V domains shown)
VH: B15 VH with K39Q, S44G, M70L, R72V, N95Y
VL: B1 VL with K45R, T69K, S93N
notes: humanized from 54B5A7; IgG1; also called 54-VH7 + VL5
B17: PiH2009 (antibody, human IgG1, kappa, V domains shown)
VH: B15 VH with K39Q, S44G, N95Y
VL: B1 VL with K45R, T69K, S93N
notes: humanized from 54B5A7; IgG1; also called 54-VH5 + VL5
B18: PiH2010 (antibody, human IgG1, kappa, V domains shown)
VH: B15 VH with K39Q, S44G
VL: B1 VL with K45R, T69K, S93N
notes: humanized from 54B5A7; IgG1; also called 54-VH6 + VL5

One may read the EC50 as the concentration that produces a half-maximal response.

In the first experiment the target is T1, human CLDN6. The experiment can be described thus: FACS on HepG2 tumour cells; target on the cells taken as CLDN6. On the procedure: (§1) 50 μL of an antibody to be tested was added to a 96-well plate, then 1×10⁵ cells were added to each well, and incubation was conducted at 4° C. for 1 h. Cells were washed three times with PBS. […] Finally, cells were washed three times with PBS, and signals were read using FACS. A binding capacity of the antibody to each tumor cell was analyzed based on detection data.
Take B1: a half-maximal effect (EC50) was put at 1.76 µg/mL. The same measure, in the same setting: the value for B2 was 2.48 µg/mL; that for B3 was 0.886 µg/mL. On the same count and under the same terms, with B4 the figure was 2.35 µg/mL; with B5, 1.5 µg/mL.

The next experiment addresses T1, human CLDN6. The experiment can be described thus: FACS on PA-1 tumour cells; target on the cells taken as CLDN6. On the procedure:
as §1
Take B6: the EC50 came out at 0.883 µg/mL. The same measure, in the same setting: the value for B1 was 0.631 µg/mL; that for B2 was 0.697 µg/mL. The same measure, in the same setting: the value for B3 was 0.455 µg/mL; that for B7 was 0.754 µg/mL.

With B4, the EC50 stood at 0.505 µg/mL. The EC50 values of the last two molecules are within 1.5-fold of each other.

With B5, the EC50 was found to be 0.75 µg/mL.

In another experiment the target is T1, human CLDN6. The experiment can be described thus: FACS on CHO-K1-CLDN6 cells, against PiH1004 (FIG. 40).
With B8, the binding result is given as “binds”.

In the case of B9, the binding result is reported as “binds”. Same read-out and setting: the value for B10 was “binds”; that for B11 was “binds”; that for B12 was “binds”. Consider B13, for which the binding result is “binds”. Regarding B14, the binding result was “binds”.

The target in a further experiment is T1, human CLDN6. The experiment can be described thus: FACS on HepG2 tumour cells; target on the cells taken as CLDN6. This is another data set of the same source. On the procedure: as §1
As for B15, the EC50 was 0.444 µg/mL. Same read-out and setting: with B16 the figure was 4.7 µg/mL; with B17, 1.11 µg/mL; with B18, 1.4 µg/mL.

Another experiment has as its target T1, human CLDN6. Description: FACS on HEK293T-CLDN6 cells. How it is done: To detect a binding capacity of a chimeric or humanized antibody to CLDN6, a CLDN6-expressing cell line HEK293T-CLDN6 and a CLDN6-negative control cell line HEK293T were washed three times with PBS. 1×10⁵ test cells and 50 μL of an antibody solution to be tested were added to a 96-well plate, and incubated at 4° C. for 1 h. The cells were then washed three times with PBS. […] Finally, cells were washed three times with PBS, and signals were read using FACS.
An EC50 value (a concentration of an antibody that binds to half of binding sites at equilibrium) is calculated through nonlinear regression.
As to B6, the EC50 amounted to 0.455 µg/mL. The same measure, in the same setting: with B1 the figure was 0.488 µg/mL; with B2, 0.374 µg/mL. The same measure, in the same setting: the value for B3 was 0.447 µg/mL; that for B7 was 0.635 µg/mL; that for B4 was 0.372 µg/mL. Same read-out and setting: the value for B5 was 0.536 µg/mL.
